From PMC11645235 (Cell, 2024) come the findings set out here.

Values joined by “and” are separate entries in the source; they are usually repeats but may differ in a detail not shown here. Identical values can stand only once.

The target in test [1] is hexa-histidyl-tagged CARF domain of Cad1 (residues 1-185) (unknown Bacteroidales bacterium). The test is described as follows: SEC-MALS; Superdex 200 10/300 increase column in buffer A (25 mM Hepes pH 8, 200 mM NaCl, 2 mM beta-mercaptoethanol, 5% glycerol); full-length Cad1 at 20 uM, apo and also after incubation with cA4 or cA6, ATP and MgCl2 (1:5:50:50) at 37 C. Background: In gel filtration, larger molecules generally elute earlier.

Test [2] has as its target CRISPR-associated adenosine deaminase 1 (Cad1), hexa-histidyl tagged, full length (unknown Bacteroidales bacterium). The test is described as above.
Test [3] concerns the target CRISPR-associated adenosine deaminase 1 (Cad1). The test is described as follows: ITC; co-crystal structure at […] Å. In kind it is binding, Bacteroidales bacterium. (Isothermal titration calorimetry measures the heat released or taken up as one component is titrated into another.)
For test [4], the target named is Cad1 E408A mutant (unknown Bacteroidales bacterium). The test is described as follows: SEC-MALS; Superdex 200 10/300 increase column in buffer A (25 mM Hepes pH 8, 200 mM NaCl, 2 mM beta-mercaptoethanol, 5% glycerol); full-length Cad1 at 20 uM, apo and also after incubation with cA4 or cA6, ATP and MgCl2 (1:5:50:50) at 37 C.
Test [5] has as its target Cad1 W349A mutant (unknown Bacteroidales bacterium). The test is described as above.
In test [6] the target is Cad1 K342A mutant (unknown Bacteroidales bacterium). The test is described as above.

As usually defined, the stoichiometry N is a count of units in the complex or per binding partner. As usually defined, the Kd is the constant that tells how readily two partners part at equilibrium. The low end stands for higher affinity, the high end for lower affinity.

In turn, “hexa-histidyl-tagged CARF domain of Cad1 (residues 1-185) (domain or fragment)” showed a stoichiometry N in test [1] of 2.
Turning to “CRISPR-associated adenosine deaminase 1 (Cad1), hexa-histidyl tagged, full length (enzyme)”, the stoichiometry N in test [2] was 6 and 2.
In test [3], `Nc1ncnc2c1ncn2[C@@H]1O[C@@H]2COP(=O)(O)O[C@H]3[C@@H](O)[C@H](n4cnc5c(N)ncnc54)O[C@@H]3COP(=O)(O)O[C@H]3[C@@H](O)[C@H](n4cnc5c(N)ncnc54)O[C@@H]3COP(=O)(O)O[C@H]3[C@@H](O)[C@H](n4cnc5c(N)ncnc54)O[C@@H]3COP(=O)(O)O[C@H]3[C@@H](O)[C@H](n4cnc5c(N)ncnc54)O[C@@H]3COP(=O)(O)O[C@H]3[C@@H](O)[C@H](n4cnc5c(N)ncnc54)O[C@@H]3COP(=O)(O)O[C@H]2[C@H]1O` [cA6] returned a Kd of 30 nM.
With Cad1 E408A mutant (enzyme), the stoichiometry N in test [4] turned out to be 6.
For Cad1 W349A mutant (enzyme), the stoichiometry N in test [5] stood at 2.
Compound Cad1 K342A mutant (enzyme) yielded a stoichiometry N in test [6] of 6.
